# Test results as given in IntAct's records for PubMed 31515488.
# B1: Four and a half LIM domains protein 2 (Homo sapiens), Q14192 (parent)
# chain: MTERFDCHHCNESLFGKKYILREESPYCVVCFETLFANTCEECGKPIGCDCKDLSYKDRHWHEACFHCSQCRNSLVDKPFAAKEDQLLCTDCYSNEYSSKCQECKKTIMPGTRKMEYKGSSWHETCFICHRCQQPIGTKSFIPKDNQNFCVPCYEKQHAMQCVQCKKPITTGGVTYREQPWHKECFVCTACRKQLSGQRFTARDDFAYCLNCFCDLYAKKCAGCTNPISGLGGTKYISFEERQWHNDCFNCKKCSLSLVGRGFLTERDDILCPDCGKDI
# partner: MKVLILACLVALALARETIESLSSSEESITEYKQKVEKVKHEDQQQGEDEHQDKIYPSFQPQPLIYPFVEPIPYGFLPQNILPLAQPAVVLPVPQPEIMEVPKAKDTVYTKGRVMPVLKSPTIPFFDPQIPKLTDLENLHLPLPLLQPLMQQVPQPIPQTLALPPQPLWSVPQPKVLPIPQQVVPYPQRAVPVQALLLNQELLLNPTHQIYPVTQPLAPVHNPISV
# B2: G patch domain and ankyrin repeat-containing protein 1 (Homo sapiens), O95872 (parent)
# chain: MSRPLLITFTPATDPSDLWKDGQQQPQPEKPESTLDGAAARAFYEALIGDESSAPDSQRSQTEPARERKRKKRRIMKAPAAEAVAEGASGRHGQGRSLEAEDKMTHRILRAAQEGDLPELRRLLEPHEAGGAGGNINARDAFWWTPLMCAARAGQGAAVSYLLGRGAAWVGVCELSGRDAAQLAEEAGFPEVARMVRESHGETRSPENRSPTPSLQYCENCDTHFQDSNHRTSTAHLLSLSQGPQPPNLPLGVPISSPGFKLLLRGGWEPGMGLGPRGEGRANPIPTVLKRDQEGLGYRSAPQPRVTHFPAWDTRAVAGRERPPRVATLSWREERRREEKDRAWERDLRTYMNLEF
# partner: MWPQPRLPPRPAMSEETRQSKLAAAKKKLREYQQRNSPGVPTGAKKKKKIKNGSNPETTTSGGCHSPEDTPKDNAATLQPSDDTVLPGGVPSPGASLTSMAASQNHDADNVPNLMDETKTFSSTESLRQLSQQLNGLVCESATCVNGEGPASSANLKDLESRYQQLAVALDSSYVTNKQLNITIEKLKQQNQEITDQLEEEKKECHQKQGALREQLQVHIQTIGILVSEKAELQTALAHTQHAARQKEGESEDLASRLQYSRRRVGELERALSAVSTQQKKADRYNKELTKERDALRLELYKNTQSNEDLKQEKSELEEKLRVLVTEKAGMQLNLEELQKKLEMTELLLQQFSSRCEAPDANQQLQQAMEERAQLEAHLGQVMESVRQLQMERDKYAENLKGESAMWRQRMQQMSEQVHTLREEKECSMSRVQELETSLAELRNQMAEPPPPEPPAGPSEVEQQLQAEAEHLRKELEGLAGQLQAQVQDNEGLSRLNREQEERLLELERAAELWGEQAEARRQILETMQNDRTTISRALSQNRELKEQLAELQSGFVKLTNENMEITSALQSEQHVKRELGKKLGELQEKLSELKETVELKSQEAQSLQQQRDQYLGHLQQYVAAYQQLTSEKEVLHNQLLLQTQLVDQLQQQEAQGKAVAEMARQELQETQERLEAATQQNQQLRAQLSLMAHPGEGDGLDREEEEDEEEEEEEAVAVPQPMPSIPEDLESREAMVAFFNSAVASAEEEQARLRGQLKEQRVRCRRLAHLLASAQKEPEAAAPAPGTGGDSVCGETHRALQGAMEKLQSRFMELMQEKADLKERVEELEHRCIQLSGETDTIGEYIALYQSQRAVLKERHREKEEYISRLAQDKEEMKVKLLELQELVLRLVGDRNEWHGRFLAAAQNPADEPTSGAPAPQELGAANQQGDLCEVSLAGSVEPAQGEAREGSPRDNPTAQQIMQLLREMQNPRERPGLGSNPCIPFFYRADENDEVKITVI
# B3: Proteasome subunit beta type-1 (Homo sapiens), P20618 (parent)
# chain: MLSSTAMYSAPGRDLGMEPHRAAGPLQLRFSPYVFNGGTILAIAGEDFAIVASDTRLSEGFSIHTRDSPKCYKLTDKTVIGCSGFHGDCLTLTKIIEARLKMYKHSNNKAMTTGAIAAMLSTILYSRRFFPYYVYNIIGGLDEEGKGAVYSFDPVGSYQRDSFKAGGSASAMLQPLLDNQVGFKNMQNVEHVPLSLDRAMRLVKDVFISAAERDVYTGDALRICIVTKEGIREETVSLRKD
# partner: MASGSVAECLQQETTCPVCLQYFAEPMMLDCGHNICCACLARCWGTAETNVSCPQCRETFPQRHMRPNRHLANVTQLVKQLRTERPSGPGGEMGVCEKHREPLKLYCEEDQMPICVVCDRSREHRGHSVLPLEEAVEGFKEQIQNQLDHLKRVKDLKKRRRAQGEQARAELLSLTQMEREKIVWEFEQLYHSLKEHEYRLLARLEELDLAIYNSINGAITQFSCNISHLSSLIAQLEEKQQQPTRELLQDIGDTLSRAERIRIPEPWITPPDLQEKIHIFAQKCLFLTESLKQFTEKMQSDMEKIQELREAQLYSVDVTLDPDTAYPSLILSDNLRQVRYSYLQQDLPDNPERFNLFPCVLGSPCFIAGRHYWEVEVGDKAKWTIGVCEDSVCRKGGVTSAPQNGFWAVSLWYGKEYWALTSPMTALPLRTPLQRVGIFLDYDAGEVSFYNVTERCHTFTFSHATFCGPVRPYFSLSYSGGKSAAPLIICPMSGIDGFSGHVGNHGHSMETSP
# B4: E3 ubiquitin-protein ligase TRIM32 (Homo sapiens), Q13049 (parent)
# chain: MAAAAASHLNLDALREVLECPICMESFTEEQLRPKLLHCGHTICRQCLEKLLASSINGVRCPFCSKITRITSLTQLTDNLTVLKIIDTAGLSEAVGLLMCRSCGRRLPRQFCRSCGLVLCEPCREADHQPPGHCTLPVKEAAEERRRDFGEKLTRLRELMGELQRRKAALEGVSKDLQARYKAVLQEYGHEERRVQDELARSRKFFTGSLAEVEKSNSQVVEEQSYLLNIAEVQAVSRCDYFLAKIKQADVALLEETADEEEPELTASLPRELTLQDVELLKVGHVGPLQIGQAVKKPRTVNVEDSWAMEATASAASTSVTFREMDMSPEEVVASPRASPAKQRGPEAASNIQQCLFLKKMGAKGSTPGMFNLPVSLYVTSQGEVLVADRGNYRIQVFTRKGFLKEIRRSPSGIDSFVLSFLGADLPNLTPLSVAMNCQGLIGVTDSYDNSLKVYTLDGHCVACHRSQLSKPWGITALPSGQFVVTDVEGGKLWCFTVDRGSGVVKYSCLCSAVRPKFVTCDAEGTVYFTQGLGLNLENRQNEHHLEGGFSIGSVGPDGQLGRQISHFFSENEDFRCIAGMCVDARGDLIVADSSRKEILHFPKGGGYSVLIREGLTCPVGIALTPKGQLLVLDCWDHCIKIYSYHLRRYSTP
# partner: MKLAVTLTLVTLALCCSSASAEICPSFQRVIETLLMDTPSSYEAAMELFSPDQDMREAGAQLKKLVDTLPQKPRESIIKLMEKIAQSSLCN
# B5: Microtubule-associated tumor suppressor candidate 2 (Homo sapiens), Q5JR59-3 (parent)
# chain: MGHCCCKPYNCLQCLDKTNESALVKEKELSIELANIRDEVAFHTAKCEKLQKEKEELERRFEDEVKRLGWQQQAELQELEERLQLQFEAEMARLQEEHGDQLLSIRCQHQEQVEDLTASHDAALLEMENNHTVAITILQDDHDHKVQELMSTHELEKKELEENFEKLRLSLQDQVDTLTFQSQSLRDRARRFEEALRKNTEEQLEIALAPYQHLEEDMKSLKQVLEMKNQQIHEQEKKILELEKLAEKNIILEEKIQVLQQQNEDLKARIDQNTVVTRQLSEENANLQEYVEKETQEKKRLSRTNEELLWKLQTGDPTSPIKLSPTSPVYRGSSSGPSSPARVSTTPR
# partner: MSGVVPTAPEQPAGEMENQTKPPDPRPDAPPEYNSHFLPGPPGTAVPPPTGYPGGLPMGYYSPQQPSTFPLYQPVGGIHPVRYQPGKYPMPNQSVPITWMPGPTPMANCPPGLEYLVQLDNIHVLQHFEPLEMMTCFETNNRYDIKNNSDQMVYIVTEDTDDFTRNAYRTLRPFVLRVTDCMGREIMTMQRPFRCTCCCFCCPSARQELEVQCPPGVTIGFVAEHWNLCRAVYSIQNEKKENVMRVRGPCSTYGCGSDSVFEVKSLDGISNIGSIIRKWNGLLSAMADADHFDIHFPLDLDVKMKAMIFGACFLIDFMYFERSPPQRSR
# B6: THAP domain-containing protein 8 (Homo sapiens), Q8NA92 (parent)
# chain: MPKYCRAPNCSNTAGRLGADNRPVSFYKFPLKDGPRLQAWLQHMGCEHWVPSCHQHLCSEHFTPSCFQWRWGVRYLRPDAVPSIFSRGPPAKSQRRTRSTQKPVSPPPPLQKNTPLPQSPAIPVSGPVRLVVLGPTSGSPKTVATMLLTPLAPAPTPERSQPEVPAQQAQTGLGPVLGALQRRVRRLQRCQERHQAQLQALERLAQQLHGESLLARARRGLQRLTTAQTLGPEESQTFTIICGGPDIAMVLAQDPAPATVDAKPELLDTRIPSA
# B7: Nucleoside diphosphate kinase homolog 5 (Homo sapiens), P56597 (parent)
# chain: MEISMPPPQIYVEKTLAIIKPDIVDKEEEIQDIILRSGFTIVQRRKLRLSPEQCSNFYVEKYGKMFFPNLTAYMSSGPLVAMILARHKAISYWLELLGPNNSLVAKETHPDSLRAIYGTDDLRNALHGSNDFAAAEREIRFMFPEVIVEPIPIGQAAKDYLNLHIMPTLLEGLTELCKQKPADPLIWLADWLLKNNPNKPKLCHHPIVEEPY
# partner: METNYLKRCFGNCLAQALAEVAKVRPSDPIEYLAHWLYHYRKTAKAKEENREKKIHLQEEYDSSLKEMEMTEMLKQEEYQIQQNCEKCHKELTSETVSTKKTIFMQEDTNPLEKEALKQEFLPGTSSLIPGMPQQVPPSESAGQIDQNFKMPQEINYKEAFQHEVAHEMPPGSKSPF
# B8: Cyclic AMP-responsive element-binding protein 3-like protein 1 (Homo sapiens), Q96BA8 (parent)
# chain: MDAVLEPFPADRLFPGSSFLDLGDLNESDFLNNAHFPEHLDHFTENMEDFSNDLFSSFFDDPVLDEKSPLLDMELDSPTPGIQAEHSYSLSGDSAPQSPLVPIKMEDTTQDAEHGAWALGHKLCSIMVKQEQSPELPVDPLAAPSAMAAAAAMATTPLLGLSPLSRLPIPHQAPGEMTQLPVIKAEPLEVNQFLKVTPEDLVQMPPTPPSSHGSDSDGSQSPRSLPPSSPVRPMARSSTAISTSPLLTAPHKLQGTSGPLLLTEEEKRTLIAEGYPIPTKLPLTKAEEKALKRVRRKIKNKISAQESRRKKKEYVECLEKKVETFTSENNELWKKVETLENANRTLLQQLQKLQTLVTNKISRPYKMAATQTGTCLMVAALCFVLVLGSLVPCLPEFSSGSQTVKEDPLAADGVYTASQMPSRSLLFYDDGAGLWEDGRSTLLPMEPPDGWEINPGGPAEQRPRDHLQHDHLDSTHETTKYLSEAWPKDGGNGTSPDFSHSKEWFHDRDLGPNTTIKLS
# partner: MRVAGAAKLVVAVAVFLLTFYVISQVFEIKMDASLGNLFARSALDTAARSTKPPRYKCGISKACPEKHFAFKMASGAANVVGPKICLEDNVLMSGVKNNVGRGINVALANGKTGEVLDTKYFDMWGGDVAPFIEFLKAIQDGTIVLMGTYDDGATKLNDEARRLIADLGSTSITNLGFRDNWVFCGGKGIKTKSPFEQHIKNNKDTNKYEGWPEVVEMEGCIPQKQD
# Variants of: B1
# Details: with casb_human CSN2, P05814
row,effect of a mutation on the interaction,Variant
1,with no effect,A37S
2,with no effect,N95K

# Variants of: B2
# Details: with goga2_human GOLGA2, Q08379
row,effect of a mutation on the interaction,Variant
1,with no effect,R41L

# Variants of: B3
# Details: with tri27_human TRIM27, P14373
row,effect of a mutation on the interaction,Variant
1,with no effect,P11A

# Variants of: B4
# Details: with uter_human SCGB1A1, P11684
row,effect of a mutation on the interaction,Variant
1,disrupting interaction strength,E547A

# Variants of: B5
# Details: with pls4_human PLSCR4, Q9NRQ2
row,effect of a mutation on the interaction,Variant
1,with no effect,A89V

# Variants of: B6
# Details: with tfp11_human TFIP11, Q9UBB9
# Chain of tfp11_human TFIP11, Q9UBB9 (Q9UBB9 whole entry): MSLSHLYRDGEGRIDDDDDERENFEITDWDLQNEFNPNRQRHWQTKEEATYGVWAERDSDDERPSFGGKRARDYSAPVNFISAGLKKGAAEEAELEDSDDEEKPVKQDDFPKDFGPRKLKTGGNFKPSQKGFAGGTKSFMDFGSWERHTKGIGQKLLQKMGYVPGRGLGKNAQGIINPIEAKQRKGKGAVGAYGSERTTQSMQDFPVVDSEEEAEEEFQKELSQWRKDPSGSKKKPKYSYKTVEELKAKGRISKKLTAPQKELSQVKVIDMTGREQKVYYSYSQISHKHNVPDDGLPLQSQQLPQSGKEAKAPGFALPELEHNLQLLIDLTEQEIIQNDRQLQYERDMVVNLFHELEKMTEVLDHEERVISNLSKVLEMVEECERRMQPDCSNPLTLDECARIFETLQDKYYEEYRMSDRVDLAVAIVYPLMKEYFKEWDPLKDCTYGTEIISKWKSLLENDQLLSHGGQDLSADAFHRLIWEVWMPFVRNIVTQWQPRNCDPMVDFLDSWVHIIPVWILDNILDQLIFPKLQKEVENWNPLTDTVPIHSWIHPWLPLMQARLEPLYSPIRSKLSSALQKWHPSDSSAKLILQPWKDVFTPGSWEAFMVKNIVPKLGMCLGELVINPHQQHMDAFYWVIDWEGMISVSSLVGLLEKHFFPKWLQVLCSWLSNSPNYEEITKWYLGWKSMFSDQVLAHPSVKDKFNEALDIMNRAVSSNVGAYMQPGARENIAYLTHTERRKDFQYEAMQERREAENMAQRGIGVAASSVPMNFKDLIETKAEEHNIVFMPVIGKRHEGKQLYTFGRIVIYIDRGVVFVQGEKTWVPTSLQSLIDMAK
row,effect of a mutation on the interaction,Variant
1,with no effect,P157S
2,with no effect,R185Q
3,with no effect,R189W

# Variants of: B7
# Details: with dydc2_human DYDC2, Q96IM9
row,effect of a mutation on the interaction,Variant
1,with no effect,I165M
2,with no effect,N198D
3,with no effect,S50N
4,with no effect,L103F

# Variants of: B8
# Details: with fam3c_human FAM3C
row,effect of a mutation on the interaction,Variant
1,with no effect,A152T
2,with no effect,I516S
